{
  "source": "patent US20220332804A1",
  "about": "(CSL INNOVATION, published 2022)",
  "test_in_all_cases": "SPR, KD relative to WT C2;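 note: biacore SPR at 37 °C, anti-C2 mAbs captured via immobilised goat anti-human IgG, C2 alanine or serine surface mutants as analytes, 1:1 model fitted, double-referenced sensograms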",
  "key": {"[1]": {"biological_target": "T1, human C2 H451A (human, UniProt P06681 21-752)", "T1 sequence": "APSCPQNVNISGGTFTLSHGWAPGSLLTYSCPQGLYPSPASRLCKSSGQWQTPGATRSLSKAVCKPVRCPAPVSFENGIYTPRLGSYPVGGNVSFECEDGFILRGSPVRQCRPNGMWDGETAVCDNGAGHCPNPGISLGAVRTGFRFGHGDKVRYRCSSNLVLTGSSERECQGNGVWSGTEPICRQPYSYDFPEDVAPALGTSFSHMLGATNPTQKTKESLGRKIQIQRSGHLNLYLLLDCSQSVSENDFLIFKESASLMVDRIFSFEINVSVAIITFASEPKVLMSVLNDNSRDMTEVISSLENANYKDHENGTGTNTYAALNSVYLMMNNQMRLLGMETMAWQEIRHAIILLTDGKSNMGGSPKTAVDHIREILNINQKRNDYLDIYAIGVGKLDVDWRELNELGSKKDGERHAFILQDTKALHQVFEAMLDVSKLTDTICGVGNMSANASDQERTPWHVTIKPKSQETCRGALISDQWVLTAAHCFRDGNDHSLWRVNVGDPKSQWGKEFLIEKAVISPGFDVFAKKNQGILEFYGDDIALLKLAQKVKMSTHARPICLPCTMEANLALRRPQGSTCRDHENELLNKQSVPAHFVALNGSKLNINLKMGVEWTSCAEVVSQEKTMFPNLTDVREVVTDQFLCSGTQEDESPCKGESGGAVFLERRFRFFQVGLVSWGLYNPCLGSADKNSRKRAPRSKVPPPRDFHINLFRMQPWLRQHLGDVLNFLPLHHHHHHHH"}, "[2]": {"biological_target": "T2, human C2 A326S (human, UniProt P06681 21-752)", "T2 sequence": "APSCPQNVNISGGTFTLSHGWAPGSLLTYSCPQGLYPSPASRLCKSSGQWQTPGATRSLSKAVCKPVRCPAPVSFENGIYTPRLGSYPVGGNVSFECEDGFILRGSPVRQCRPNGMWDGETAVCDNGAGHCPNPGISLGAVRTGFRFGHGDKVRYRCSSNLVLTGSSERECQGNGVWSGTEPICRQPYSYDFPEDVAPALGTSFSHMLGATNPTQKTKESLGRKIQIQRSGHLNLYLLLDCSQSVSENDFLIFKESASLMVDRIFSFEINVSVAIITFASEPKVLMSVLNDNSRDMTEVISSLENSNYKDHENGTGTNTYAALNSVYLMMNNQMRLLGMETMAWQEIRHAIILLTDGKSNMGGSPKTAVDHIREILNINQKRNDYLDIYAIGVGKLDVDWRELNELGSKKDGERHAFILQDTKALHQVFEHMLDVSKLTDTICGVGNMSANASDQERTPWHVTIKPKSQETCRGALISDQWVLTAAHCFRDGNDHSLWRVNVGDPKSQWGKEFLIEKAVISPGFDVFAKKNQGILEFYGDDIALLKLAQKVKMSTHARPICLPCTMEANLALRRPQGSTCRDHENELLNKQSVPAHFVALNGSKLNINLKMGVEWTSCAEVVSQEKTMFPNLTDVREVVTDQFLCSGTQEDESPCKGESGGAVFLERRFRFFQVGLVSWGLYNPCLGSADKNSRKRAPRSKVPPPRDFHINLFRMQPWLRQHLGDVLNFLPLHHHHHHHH"}, "[3]": {"biological_target": "T3, human C2 D419A (human, UniProt P06681 21-752)", "T3 sequence": "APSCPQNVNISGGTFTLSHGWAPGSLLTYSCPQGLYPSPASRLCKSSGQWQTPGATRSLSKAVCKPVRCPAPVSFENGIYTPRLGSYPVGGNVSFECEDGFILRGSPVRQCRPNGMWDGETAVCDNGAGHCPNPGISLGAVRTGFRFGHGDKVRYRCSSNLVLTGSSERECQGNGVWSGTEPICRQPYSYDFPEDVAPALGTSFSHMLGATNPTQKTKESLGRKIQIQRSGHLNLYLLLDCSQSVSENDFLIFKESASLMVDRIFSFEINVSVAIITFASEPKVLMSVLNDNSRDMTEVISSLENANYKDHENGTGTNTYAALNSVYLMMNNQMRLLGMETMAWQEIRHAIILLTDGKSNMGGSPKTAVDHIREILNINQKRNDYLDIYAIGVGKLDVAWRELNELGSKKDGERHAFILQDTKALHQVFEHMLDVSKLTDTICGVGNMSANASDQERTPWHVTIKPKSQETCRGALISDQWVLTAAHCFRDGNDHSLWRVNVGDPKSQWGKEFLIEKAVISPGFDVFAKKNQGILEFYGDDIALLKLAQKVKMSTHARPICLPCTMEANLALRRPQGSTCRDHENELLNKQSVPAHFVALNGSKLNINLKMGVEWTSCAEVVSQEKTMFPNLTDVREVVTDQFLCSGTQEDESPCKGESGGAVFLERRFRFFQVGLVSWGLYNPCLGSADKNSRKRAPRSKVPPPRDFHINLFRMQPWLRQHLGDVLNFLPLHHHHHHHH"}, "[4]": {"biological_target": "T4, human C2 S469A (human, UniProt P06681 21-752)", "T4 sequence": "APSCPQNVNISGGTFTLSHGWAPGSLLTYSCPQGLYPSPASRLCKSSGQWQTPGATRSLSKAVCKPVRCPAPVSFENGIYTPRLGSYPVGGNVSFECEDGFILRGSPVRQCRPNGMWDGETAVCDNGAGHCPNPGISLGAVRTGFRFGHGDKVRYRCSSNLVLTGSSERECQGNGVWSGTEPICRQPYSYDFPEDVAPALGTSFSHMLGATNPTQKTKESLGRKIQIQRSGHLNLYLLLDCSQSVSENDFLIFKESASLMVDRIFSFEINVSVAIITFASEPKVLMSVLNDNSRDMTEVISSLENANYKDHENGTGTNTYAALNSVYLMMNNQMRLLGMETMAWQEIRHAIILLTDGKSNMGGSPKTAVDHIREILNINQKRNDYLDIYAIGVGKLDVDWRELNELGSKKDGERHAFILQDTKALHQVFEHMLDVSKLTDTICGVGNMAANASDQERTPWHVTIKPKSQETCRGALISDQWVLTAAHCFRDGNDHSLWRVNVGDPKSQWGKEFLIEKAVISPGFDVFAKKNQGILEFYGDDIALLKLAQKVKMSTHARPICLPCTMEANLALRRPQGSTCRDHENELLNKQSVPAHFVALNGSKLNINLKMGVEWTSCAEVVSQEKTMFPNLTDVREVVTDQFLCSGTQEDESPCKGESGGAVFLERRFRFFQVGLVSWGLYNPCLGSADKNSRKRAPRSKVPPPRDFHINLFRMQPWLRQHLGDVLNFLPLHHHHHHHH"}},
  "data": [
    {"binder": "RF16-226 (antibody, human IgG4 S228P, lambda, pH-dependent anti-C2 antibody from a phage display library; also called WT) heavy: not shown light: SYELTQPPSVSVSPGQTARITCSGDALTSKYVAWYQQKSGLAPLLVIYEDTRRPSGIPAKFSGSSSGSVATLTISGAHGDDEADYYCYSTDASGHQRVFGGGTKLTVLSQPKAAPSVTLFPPSSEELQANKATLVCLISDFYPGAVTVAWKADGSPVKAGVETTKPSKQSNNKYAASSYLSLTPEQWKSHRSYSCQVTHEGSTVEKTVAPTECS", "values": [
      {"measurement": "Fold diff", "setting": "[1]", "result": 11, "unit": "fold"},
      {"measurement": "Fold diff", "setting": "[2]", "result": 1, "unit": "fold"},
      {"measurement": "Fold diff", "setting": "[3]", "result": 2, "unit": "fold"},
      {"measurement": "Fold diff", "setting": "[4]", "result": 3, "unit": "fold"}
    ]}
  ]
}
